1 molecule from patent US6512004B2, “Promoters of neural regeneration” (The Regents of the University of California, priority 1998, dated 2003) can be followed below.

The experiment deals with growth cones of Xenopus spinal neurons. Put plainly: Growth cone turning in gradients of purified MAG or purified myelin. Type of experiment: cell-based. To be noted: purified MAG 150 μg/ml, purified myelin 25 μg/ml in the pipette; with or without Sp-cAMPS, 8-br-cGMP, low Ca2+. The procedure: FIG. 5. Growth cone turning induced by purified myelin. A gradient of purified myelin (25 μg/ml in the pipette) was applied in normal culture medium (open circles), in medium containing Sp-cAMPS (20 μM, solid circles), or 8-br-cGMP (100 μM, solid squares). Isolated symbols along the abscissa are median values for corresponding data shown above.
FIGS. 6A, 6B. Effects of purified myelin-associated glycoprotein (MAG) on growth cones of Xenopus spinal neurons. A gradient of purified MAG (150 μg/ml in the pipette) was applied in normal culture medium (open circles), in medium containing Sp-cAMPS (20 μM, solid circles), or in medium containing 8-br-cGMP (100 μM, solid squares). (A) Shown are distributions of turning angles under different conditions. Isolated symbols along the abscissa are median values for corresponding data shown above. (B) Shown are distributions of net neurite extension in the gradient under different conditions.
FIGS. 7A, 7B. Effects of reducing external Ca^2+. (A) Purified MAG-induced turning depends on [Ca^2+]o. Shown are distributions of turning angles in normal medium in the absence (solid circles) or presence of Sp-cAMPS (20 μM, solid squares), and in medium containing 1 μM [Ca^2+]o in the absence (open circles) or presence of Sp-cAMPS (20 μM, open squares), respectively. […]
8. […] Only growth cones with a net extension >5 μm over the one-hour period were scored.

B1: purified myelin-associated glycoprotein (MAG): Native MAG purified from myelin after extraction in 1% octylglucoside and DEAE-Sepharose separation (protein, UniProt P07722 20-626, looked up)
Myelin-associated glycoprotein: GHWGAWMPSSISAFEGTCVSIPCRFDFPDELRPAVVHGVWYFNSPYPKNYPPVVFKSRTQVVHESFQGRSRLLGDLGLRNCTLLLSTLSPELGGKYYFRGDLGGYNQYTFSEHSVLDIINTPNIVVPPEVVAGTEVEVSCMVPDNCPELRPELSWLGHEGLGEPTVLGRLREDEGTWVQVSLLHFVPTREANGHRLGCQAAFPNTTLQFEGYASLDVKYPPVIVEMNSSVEAIEGSHVSLLCGADSNPPPLLTWMRDGMVLREAVAESLYLDLEEVTPAEDGIYACLAENAYGQDNRTVELSVMYAPWKPTVNGTVVAVEGETVSILCSTQSNPDPILTIFKEKQILATVIYESQLQLELPAVTPEDDGEYWCVAENQYGQRATAFNLSVEFAPIILLESHCAAARDTVQCLCVVKSNPEPSVAFELPSRNVTVNETEREFVYSERSGLLLTSILTLRGQAQAPPRVICTSRNLYGTQSLELPFQGAHRLMWAKIGPVGAVVAFAILIAIVCYITQTRRKKNVTESPSFSAGDNPHVLYSPEFRISGAPDKYESEKRLGSERRLLGLRGEPPELDLSYSHSDLGKRPTKDSYTLTEELAEYAEIRVK
B1: the “growth cone turning induced by the purified factor and its modulation” value was “results similar to those with rMAG”.
